# Reference: patent US10556936B2, “Immunogenic proteins and fragments thereof from allergenic mites” (ALK-ABELLÓ A/S, priority 2016, dated 2020)
# B1: A014: house dust mite protein; SEQ ID NO: 32 (Der f), 33 (Der p) (protein)
# chain: IEQVHIALGSNETEIIVTWTEPHKHDDKTSDAVVYYGQAKSSFDQKVKAISEYFKDDKTKYTTYRALLTGLLPGTEYHYRIQMDDLESSIFEFKTLKTGEENWLPRFAIYGDLGYVNEQSLPYLKKDVEQNLFDVIFHIGDFAYDLNDEHGKVGHHFMRSIEPVASKVAYMTCPGNHERHDNFSHYDSRFSMIGDRSQPIHSDKLNKRLNNHFHSMTIGPATIILFSTEYYYYTKYGWQQIEHQYRWLEQELKRANENRQKHPWIIVMGHRPLYCLKMGDDSCDHQTMERKEIRQGIRMHDEGERQYGLEDLFFKYGVDIQFYGHEHFYARLFPIYKYKMYNGTKSKNPYDHPGAPIHITTGSAGNKELHPEFNHLNDWVAEHFYDYGYTRLMFEDKYRIRLQQISDDQHGKVLDEIEIVKSSPQPHWMNVEHH
# B2: A012: house dust mite protein; SEQ ID NO: 22 (Der p), 38 (Der f), 310 (Blo t) (protein)
# chain: QSRDRNDKPYRIVCYWGTWAFYRPASGKFQAENVNPNLCTHIMYGFAKLQNNKIALYDPDLDDGDEDWNSGLQWGHGMIRRMVNLRTYNPHLTTMISLGGWNEGSDKYSIMVRDPASRKIFIQSVLHLLAEFDLDGLDFDWEYPAMQASGDSDRKPGRAEDKEDFVTLLRELHEAFQPHGYVLSSAVSAGKPTIDRAYNIPEVSKYLDFINLMSYDYHGGWESHTGHNAPLNSYKNANELDKEFTVTYSVEYWLNHGVDPKKLVLGIPLYGRTFTLAGSEHGIGAPTIGKGGESGTITRTIGMLGYNEICTMIKQGWQLYRDEIERIPYAVHANQWIGYDDRESVNEKLNLLMAKHLGGAMVWSIDTDDFVGNCVGVKYPLLRSISKKLNNVDGPDPDIKRYHYHTSTAKPHTDGTTSTHHDHKTTTTKHHKTTQPHHKTTQPHHTQTITTTTERPHGKFQCHQAGFFADPENPRKFHQCVDFGGHLKDYEFMCGEGTHYDEKLHICVR
# B3: A013: house dust mite protein; SEQ ID NO: 36 (Der f), 37 (Der p), 311 (Blo t) (protein)
# chain: DTPANCTYEDIKGLWLFEETEPIKDRWEKCPEHQQQREKYSKKIFIRLDFPNVAVDKFGNIGEWTMIYNQGFEVKINYRKYFAFSAYERKSENNVLSYCHKTQPGWSHDVLGNNWACYVGHKVNNWNDDDVSKTTTVGAEKFPVKQHSERELYLQNINVEHILSQKHIDHLNSQQKSWKAIVYPDLQSKSIEHLIQMAGGRKSRIINRPKPLRATEQQKQLARSLPESFDWRNLNGIDYVSPVRDQGKCGSCYTFASMAMLESRIRIQTNNTFKPIFSTQEVVDCSEYSQGCDGGFSYLIAGKYAQDFGVIDESCYPYKGVTGKCQNQQNFNQTNEKCKQRTYTIDYKYVGGYFGACNEEAMQIELVQNGPIAVGFEVYGDFFGYSEGIYSHQPSNESNDQHQQIKAEFNPFEMTNHAVLIVGYGKDKKTGEKYWIVKNSWGKQWGMDGYFWMRRGTDECAIESLAMAATPIPN
# B4: A016: house dust mite protein; SEQ ID NO: 28 (Der f), 29 (Der p) (protein)
# chain: MVKIGINGFGRIGRLVLRAAIKKGVEVAAINDPFLDVKYMVYMFKFDSTHGRYQGEVKEEGGLLVVDGQKIQVFQERNPAEIPWGKVGADYVVESTGVFTTIEKAKAHLAGGAKKVIISAPSADAPMYVMGVNHDKYDPKQQIISNASCTTNCLAPLAKVINDKFGIENGLMTTVHAITATQKTVDGPSGKLWRDGRGAGQNIIPASTGAAKAVGKVIPELNGKLTGMALRVPVPDVSVVDLTVTLKNPASYDEIKAAVKAAAESDHWKGILEYTDEEVVSSDFISDTHSSIFDAKAGIALTPTFVKLIAWYDNEFGYSNRVVDLIKYVASK
# Test system: PBMC cells obtained from mite allergic patients and non-allergics
# Test: Ex vivo stimulation of PBMC: cytokine production (IFN-gamma, IL-9, IL-10, IL-17, IL-31)
# Type: cell-based, human
# Conditions: HDM allergic individuals; IL-5
# Description: (§1) This example relates to the further testing of immunogenicity of the proteins identified in Example 1. Their ability to react with IgE antibodies in HDM allergic individuals, to stimulate in vitro T cell proliferation of HDM allergic individuals and non-allergics, and to stimulate ex vivo cytokine production of HDM allergic individuals and non-allergics. The following tests were used: • Basophil Activation Test (BAT) was used as a predictive in vitro assay for indication of safety/immediate hypersensitivity reactions. BAT test was carried out using blood from HDM allergic individuals (n=14), and by use of different concentrations of test proteins or the major house dust mite allergens (Der p 1, Der f 1, Der p 2 or Der f 2, e.g. a concentration of 1, 10, 100 or 1000 ng/ml. • In vitro T cell reactivity determined in T cell lines obtained from HDM allergic individuals (n=30) and non-allergics (n=8): Determined by establishment of HDM specific T-cell lines according to standard methods. In short, PMBCs from HDM allergic donors were cultured for 3 weeks in the presence of house dust mite allergen extract. The responses to proteins at a concentration of 0.5 ug/ml or 2 ug/ml of the test protein or the major house dust mite allergens (Der p 1, Der f 1, Der p 2 or Der f 2) were assessed by proliferation in a standard 72 h T cell proliferation assay, as described in Henmar H et al., Clin Exp Immunol 2008; 153(3):316-23. […]. • Ex vivo stimulation of PBMC cells obtained from mite allergic patients (n=16) and non-allergics (n=6): Determined by measuring the production of the cytokines; IFN-gamma, IL-9, IL-10, IL-17 and IL-31 following stimulation with test protein in concentration up to 10 ug/ml. Freshly isolated PBMC 5×10^6/ml were cultured with a test protein for 5 days and cell supernatant were harvested and stored at −80° C. Cytokines of the supernatants were measured using ProcartaPlex Multiplex Immunoassays with MAGPIX Multiplex Reader according manufactory protocol.
row,Molecule,% HDM allergic individuals with cytokine production in ex-vivo T cell assay IL-5 [%]
1,B1,6
2,B2,69
3,B3,50
4,B4,6

# Same assay, conditions: HDM allergic individuals; IL-9
row,Molecule,% HDM allergic individuals with cytokine production in ex-vivo T cell assay IL-9 [%]
1,B1,0
2,B2,25
3,B3,25
4,B4,0

# Same assay, conditions: HDM allergic individuals; IL-10
row,Molecule,% HDM allergic individuals with cytokine production in ex-vivo T cell assay IL-10 [%]
1,B1,25
2,B2,19
3,B3,38
4,B4,25

# Same assay, conditions: HDM allergic individuals; IL-13
row,Molecule,% HDM allergic individuals with cytokine production in ex-vivo T cell assay IL-13 [%]
1,B1,6
2,B2,44
3,B3,38
4,B4,13

# Same assay, conditions: HDM allergic individuals; IL-17
row,Molecule,% HDM allergic individuals with cytokine production in ex-vivo T cell assay IL-17 [%]
1,B1,31
2,B2,19
3,B3,6
4,B4,13

# Same assay, conditions: HDM allergic individuals; IL-31
row,Molecule,% HDM allergic individuals with cytokine production in ex-vivo T cell assay IL-31 [%]
1,B1,0
2,B2,0
3,B3,0
4,B4,0

# Same assay, conditions: HDM allergic individuals; INF-g
row,Molecule,% HDM allergic individuals with cytokine production in ex-vivo T cell assay INF-g [%]
1,B1,13
2,B2,0
3,B3,0
4,B4,6

# Same assay, conditions: non-allergic individuals; IL-5
row,Molecule,% non-allergic individuals with cytokine production in ex-vivo T cell assay IL-5 [%]
1,B1,0
2,B2,0
3,B3,0
4,B4,0

# Same assay, conditions: non-allergic individuals; IL-9
row,Molecule,% non-allergic individuals with cytokine production in ex-vivo T cell assay IL-9 [%]
1,B1,0
2,B2,0
3,B3,0
4,B4,0

# Same assay, conditions: non-allergic individuals; IL-10
row,Molecule,% non-allergic individuals with cytokine production in ex-vivo T cell assay IL-10 [%]
1,B1,33
2,B2,67
3,B3,0
4,B4,0

# Same assay, conditions: non-allergic individuals; IL-13
row,Molecule,% non-allergic individuals with cytokine production in ex-vivo T cell assay IL-13 [%]
1,B1,0
2,B2,0
3,B3,0
4,B4,0

# Same assay, conditions: non-allergic individuals; IL-17
row,Molecule,% non-allergic individuals with cytokine production in ex-vivo T cell assay IL-17 [%]
1,B1,33
2,B2,33
3,B3,0
4,B4,17

# Same assay, conditions: non-allergic individuals; IL-31
row,Molecule,% non-allergic individuals with cytokine production in ex-vivo T cell assay IL-31 [%]
1,B1,0
2,B2,0
3,B3,0
4,B4,0

# Same assay, conditions: non-allergic individuals; INF-g
row,Molecule,% non-allergic individuals with cytokine production in ex-vivo T cell assay INF-g [%]
1,B1,33
2,B2,17
3,B3,0
4,B4,0

# Test system: T cell lines obtained from HDM allergic individuals and non-allergics
# Test: In vitro T cell proliferation test in T cell lines (Example 3)
# Type: cell-based, human
# Conditions: T cell lines from HDM allergic individuals (n=30); 0.5 or 2 ug/ml; 72 h
# Description: as §1
row,Molecule,"% responders of in-vitro T cell proliferation test, Allergic [%]"
1,B1,43
2,B2,39
3,B3,18
4,B4,7

# Same assay, conditions: T cell lines from non-allergics (n=8); 0.5 or 2 ug/ml; 72 h
row,Molecule,"% responders of in-vitro T cell proliferation test, Non-allergics [%]"
1,B1,0
2,B2,13
3,B3,13
4,B4,0

# Test system: basophils in whole blood from HDM allergic donors
# Test: Basophil Activation Test (BAT)
# Type: cell-based, human
# Conditions: 1 ng/ml; blood from HDM allergic individuals (n=14)
# Protocol: Basophil Activation Test (BAT) was used as a predictive in vitro assay for indication of safety/immediate hypersensitivity reactions. The BAT assay is a widely used diagnostic test that is also used for evaluation of allergenicity of allergen derived components. In short: whole blood from HDM allergic donors was stimulated for 1 h with the proteins, and the increased expression of activation markers on the surface of basophils were measured by flow cytometry. The BAT test was carried out using different concentrations of the proteins and the allergens Der p 2 and Der p 1 was used as controls and tested in the same concentration rates.
# as §1
row,Molecule,# of individuals of 14 with positive BAT test
1,B1,0
2,B2,0
3,B3,0
4,B4,0

# Same assay, conditions: 10 ng/ml; blood from HDM allergic individuals (n=14)
row,Molecule,# of individuals of 14 with positive BAT test
1,B1,0
2,B2,0
3,B3,0
4,B4,0

# Same assay, conditions: 100 ng/ml; blood from HDM allergic individuals (n=14)
row,Molecule,# of individuals of 14 with positive BAT test
1,B1,0
2,B2,0
3,B3,0
4,B4,0

# Same assay, conditions: 1000 ng/ml; blood from HDM allergic individuals (n=14)
row,Molecule,# of individuals of 14 with positive BAT test
1,B1,0
2,B2,0
3,B3,0
4,B4,0
